Reference: the supplement of paper PMC7125110
± gives the standard error. For some assays here: This sample holds only a part of the variants without activity.

B1: glmS ribozyme (parent)
chain: AUAAAAGCGCCAGAACUACAGAAAUGUAGUUGACGAGGAGGAGGUUUAUCGAAUUUUCGGCGGAUGCCUCCAAA

Tests used:
Conditions in all cases: with glucosamine-6-phosphate
[1] = variants of: B1; assay: kcat; higher = faster cleavage; RNA array
Procedure, shortened: (§1)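 Glucosamine-6-phosphate, from 40 μM to 10 mM in HEPES/KCl/Mg(OAc)2 buffer, was flowed over sequenced MiSeq chips carrying barcoded ribozyme variants transcribed in situ by E. coli RNA polymerase. A hybridised Cy3 probe tracked the variants at 37 °C as tiles were imaged over ~14 h. kobs, kcat and KM were obtained by fitting normalised per-tile medians to exponential decays and then applying weighted Michaelis–Menten fits across concentrations.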

[2] = variants of: B1; assay: KM; higher = weaker cofactor use; RNA array
Procedure, shortened: as §1

[3] = variants of: B1; assay: self-cleavage kobs at 640 uM GlcN6P; higher = faster cleavage; RNA array
Procedure, shortened: as §1

[4] = variants of: B1; assay: self-cleavage kobs at 2500 uM GlcN6P; higher = faster cleavage; RNA array
Procedure, shortened: as §1

[5] = variants of: B1; assay: self-cleavage kobs at 10000 uM GlcN6P; higher = faster cleavage; RNA array
Procedure, shortened: as §1

[6] = variants of: B1; assay: self-cleavage kobs at 160 uM GlcN6P; higher = faster cleavage; RNA array
Procedure, shortened: as §1

[7] = variants of: B1; assay: self-cleavage kobs at 40 uM GlcN6P; higher = faster cleavage; RNA array
Procedure, shortened: as §1

Variant | kcat [1] [s⁻¹] | KM [2] [mM] | self-cleavage kobs at 640 uM GlcN6P [3] [s⁻¹] | self-cleavage kobs at 2500 uM GlcN6P [4] [s⁻¹] | self-cleavage kobs at 10000 uM GlcN6P [5] [s⁻¹] | self-cleavage kobs at 160 uM GlcN6P [6] [s⁻¹] | self-cleavage kobs at 40 uM GlcN6P [7] [s⁻¹]
A53C C68U | 9.65e-05 ± 7.1e-06 | 0.858 ± 0.31 | 3.67e-05 ± 7.7e-06 | 8.77e-05 ± 1e-05 | 8.67e-05 ± 5.3e-06 | – | –
C58G C71G | 2.97e-05 ± 5.4e-06 | – | 3.12e-05 ± 1.3e-05 | 3.56e-05 ± 1.5e-05 | – | – | –
C58G C71A | 3.56e-05 ± 9.8e-06 | – | – | 4.27e-05 ± 7.5e-06 | 1.89e-05 ± 9.2e-06 | 4.45e-05 ± 1e-05 | –
U54G C61G | 1.78e-05 ± 5.8e-06 | – | – | – | – | – | < 1e-05
C16A G59A | 1.02e-05 ± 3.6e-06 | – | – | – | – | – | –
G13U A64G | 0.00128 ± 0.00031 | 4.21 ± 1.6 | 0.000149 ± 1.9e-05 | 0.000657 ± 6.9e-05 | 0.000847 ± 8.3e-05 | 4.62e-05 ± 1.2e-05 | –
U54C C58U | 4.86e-05 ± 8.6e-06 | – | – | 4.48e-05 ± 1.5e-05 | 4.34e-05 ± 9.3e-06 | – | –
A14C A15C | 0.00204 ± 0.00038 | 2.74 ± 0.76 | 0.000339 ± 4.6e-05 | 0.0011 ± 0.00014 | 0.00157 ± 0.00017 | 0.000103 ± 1.6e-05 | 4.27e-05 ± 6.9e-06
C68G U69G | 2.17e-05 ± 5e-06 | – | – | 2.65e-05 ± 1.2e-05 | – | – | –
U31A A39G | 0.0529 ± 0.014 | 4.34 ± 1.3 | 0.00495 ± 0.0018 | 0.0245 ± 0.0078 | 0.0363 ± 0.0095 | 0.00202 ± 0.00038 | 0.000491 ± 7.7e-05
G32C G60A | < 1e-05 | – | – | – | – | – | < 1e-05
G9U C61G | 0.000192 ± 1.7e-05 | 2.35 ± 0.46 | 4.57e-05 ± 1.2e-05 | 9.21e-05 ± 1.7e-05 | 0.00016 ± 2.5e-05 | – | < 1e-05
C16G U30A U65G | 0.000143 ± 7.4e-06 | 4.14 ± 0.53 | – | 5.44e-05 ± 2e-05 | 0.000101 ± 2.1e-05 | – | –
U46A A64G | 0.00469 ± 0.0011 | 2.7 ± 0.99 | 0.000754 ± 0.00015 | 0.00242 ± 0.00047 | 0.00373 ± 0.00065 | – | 0.000102 ± 2.3e-05
U46A C61U | < 1e-05 | – | < 1e-05 | < 1e-05 | – | < 1e-05 | –
A12U G32U | 0.000501 ± 4.8e-05 | 4.27 ± 0.69 | 6.09e-05 ± 8.4e-06 | 0.000196 ± 2.1e-05 | 0.000345 ± 3.4e-05 | 2.63e-05 ± 1.2e-05 | –
U46C C70U | 0.00656 ± 0.0027 | – | 0.00156 ± 0.00017 | 0.00301 ± 0.00041 | 0.00508 ± 0.00066 | 0.00026 ± 3.8e-05 | 0.00017 ± 2.3e-05
